How the values were obtained:
[1] = molecular target: T1, soluble p97 (amino acids 20-710 of human p97 precursor), 6x his tag (human, UniProt P08582 20-710); test: SPR, Biacore 2000, 25 C; p97 immobilised on CM5 chip, scFv fusion injected; 1:1 model
T1 construct: range 20-710; also called p97 melanotransferrin; recombinant p97; not shown: 6x his tag from vector pSecTag2
T1 sequence: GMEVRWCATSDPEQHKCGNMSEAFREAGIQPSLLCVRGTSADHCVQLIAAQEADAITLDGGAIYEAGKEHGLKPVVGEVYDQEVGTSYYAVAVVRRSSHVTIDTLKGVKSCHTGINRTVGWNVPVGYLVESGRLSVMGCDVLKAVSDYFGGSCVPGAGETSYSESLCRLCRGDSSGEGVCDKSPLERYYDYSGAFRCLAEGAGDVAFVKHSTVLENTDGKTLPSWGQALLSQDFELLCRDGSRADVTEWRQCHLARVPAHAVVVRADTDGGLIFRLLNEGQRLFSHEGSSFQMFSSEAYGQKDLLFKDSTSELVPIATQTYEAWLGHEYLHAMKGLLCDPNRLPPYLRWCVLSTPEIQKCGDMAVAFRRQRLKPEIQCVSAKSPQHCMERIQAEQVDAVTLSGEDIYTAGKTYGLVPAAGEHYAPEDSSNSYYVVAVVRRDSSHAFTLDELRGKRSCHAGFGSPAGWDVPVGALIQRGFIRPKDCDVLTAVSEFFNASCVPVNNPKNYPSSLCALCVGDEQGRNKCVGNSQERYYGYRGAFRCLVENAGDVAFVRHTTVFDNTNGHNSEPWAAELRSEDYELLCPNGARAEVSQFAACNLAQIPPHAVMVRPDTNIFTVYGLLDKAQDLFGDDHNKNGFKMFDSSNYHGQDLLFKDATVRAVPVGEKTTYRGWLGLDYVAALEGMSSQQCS

[2] = molecular target: T1, soluble p97 (amino acids 20-710 of …); test: solid-phase binding assay on wells coated with soluble p97; crude refold normalised on beta-lactamase activity; nitrocefin read-out, OD 490 nm [a]
[3] = molecular target: T1, soluble p97 (amino acids 20-710 of …); test: SEC binding assay with purified p97 (discussion of the example)

| Binder | Kd [1] [nM] | koff [1] [s⁻¹] | kon [1] [M⁻¹ s⁻¹] | binding result [2] | percent of purified protein bound to antigen [3] [%] |
| --- | --- | --- | --- | --- | --- |
| parental L49-sFv-bL fusion protein FP95 (scFv, also called L49-scFv-bL; parental molecule) scFv: MEVQLQESGPSLVKPSQTLSLTCSVTGDSITSGYWNWIRKFPGNKLEYMGYISDSGITYYNPSLKSRISITRDTSKNQYYLQLNFVTAEDTATYNCARRTLATYYAMDYWGQGTSVTVSSGSTSGSGKPGSGEGSTKGDFVMTQTPLSLPVSLGDQASISCRASQSLVHSNGNTYLHWYLQKPGQSPKLLIYRVSNRFSGVPDRFSGSGSGTDFTLKISRVEAEDLGVYFCSQSTHVPPTFGGGTKLEIKRTPVSEKQLAEVVANTITPLMKAQSVPGMAVAVIYQGKPHYYTFGKADIAANKPVTPQTLFELGSISKTFTGVLGGDAIARGEISLDDAVTRYWPQLTGKQWQGIRMLDLATYTAGGLPLQVPDEVTDNASLLRFYQNWQPQWKPGTTRLYANASIGLFGALAVKPSGMPYEQAMTTRVLKPLKLDHTWINVPKAEEAHYAWGYRDGKAVRVSPGMLDAQAYGVKTNVQDMANWVMANMAPENVADASLKQGIALAQSRYWRIGSMYQGLGWEMLNWPVEANTVVETSFGNVALAPLPVAEVNPPAPPVKASWVHKTGSTGGFGSYVAFIPEKQIGIVMLANTSYPNPARVEAAYHILEALQ | 2.31 | 0.0007 | 304000 | – | – |
| L49-sFv-bL mutant FP930 (K H39 Q) (scFv) scFv: MEVQLQESGPSLVKPSQTLSLTCSVTGDSITSGYWNWIRQFPGNKLEYMGYISDSGITYYNPSLKSRISITRDTSKNQYYLQLNFVTAEDTATYNCARRTLATYYAMDYWGQGTSVTVSSGSTSGSGKPGSGEGSTKGDFVMTQTPLSLPVSLGDQASISCRASQSLVHSNGNTYLHWYLQKPGQSPKLLIYRVSNRFSGVPDRFSGSGSGTDFTLKISRVEAEDLGVYFCSQSTHVPPTFGGGTKLEIKRTPVSEKQLAEVVANTITPLMKAQSVPGMAVAVIYQGKPHYYTFGKADIAANKPVTPQTLFELGSISKTFTGVLGGDAIARGEISLDDAVTRYWPQLTGKQWQGIRMLDLATYTAGGLPLQVPDEVTDNASLLRFYQNWQPQWKPGTTRLYANASIGLFGALAVKPSGMPYEQAMTTRVLKPLKLDHTWINVPKAEEAHYAWGYRDGKAVRVSPGMLDAQAYGVKTNVQDMANWVMANMAPENVADASLKQGIALAQSRYWRIGSMYQGLGWEMLNWPVEANTVVETSFGNVALAPLPVAEVNPPAPPVKASWVHKTGSTGGFGSYVAFIPEKQIGIVMLANTSYPNPARVEAAYHILEALQ | – | – | – | binds | – |
| 935 (scFv, also called FP935; L49-sFv-bL mutant FP935 (Y H47 W)) MEVQLQESGPSLVKPSQTLSLTCSVTGDSITSGYWNWIRKFPGNKLEWMGYISDSGITYYNPSLKSRISITRDTSKNQYYLQLNFVTAEDTATYNCARRTLATYYAMDYWGQGTSVTVSSGSTSGSGKPGSGEGSTKGDFVMTQTPLSLPVSLGDQASISCRASQSLVHSNGNTYLHWYLQKPGQSPKLLIYRVSNRFSGVPDRFSGSGSGTDFTLKISRVEAEDLGVYFCSQSTHVPPTFGGGTKLEIKRTPVSEKQLAEVVANTITPLMKAQSVPGMAVAVIYQGKPHYYTFGKADIAANKPVTPQTLFELGSISKTFTGVLGGDAIARGEISLDDAVTRYWPQLTGKQWQGIRMLDLATYTAGGLPLQVPDEVTDNASLLRFYQNWQPQWKPGTTRLYANASIGLFGALAVKPSGMPYEQAMTTRVLKPLKLDHTWINVPKAEEAHYAWGYRDGKAVRVSPGMLDAQAYGVKTNVQDMANWVMANMAPENVADASLKQGIALAQSRYWRIGSMYQGLGWEMLNWPVEANTVVETSFGNVALAPLPVAEVNPPAPPVKASWVHKTGSTGGFGSYVAFIPEKQIGIVMLANTSYPNPARVEAAYHILEALQ | – | – | – | binds | – |
| 940 (scFv, also called FP940; L49-sFv-bL mutant FP940 (Y H78 A)) MEVQLQESGPSLVKPSQTLSLTCSVTGDSITSGYWNWIRKFPGNKLEYMGYISDSGITYYNPSLKSRISITRDTSKNQAYLQLNFVTAEDTATYNCARRTLATYYAMDYWGQGTSVTVSSGSTSGSGKPGSGEGSTKGDFVMTQTPLSLPVSLGDQASISCRASQSLVHSNGNTYLHWYLQKPGQSPKLLIYRVSNRFSGVPDRFSGSGSGTDFTLKISRVEAEDLGVYFCSQSTHVPPTFGGGTKLEIKRTPVSEKQLAEVVANTITPLMKAQSVPGMAVAVIYQGKPHYYTFGKADIAANKPVTPQTLFELGSISKTFTGVLGGDAIARGEISLDDAVTRYWPQLTGKQWQGIRMLDLATYTAGGLPLQVPDEVTDNASLLRFYQNWQPQWKPGTTRLYANASIGLFGALAVKPSGMPYEQAMTTRVLKPLKLDHTWINVPKAEEAHYAWGYRDGKAVRVSPGMLDAQAYGVKTNVQDMANWVMANMAPENVADASLKQGIALAQSRYWRIGSMYQGLGWEMLNWPVEANTVVETSFGNVALAPLPVAEVNPPAPPVKASWVHKTGSTGGFGSYVAFIPEKQIGIVMLANTSYPNPARVEAAYHILEALQ | – | – | – | binds | – |
| L49-sFv-bL mutant FP950 (N H91 Y) (scFv) scFv: MEVQLQESGPSLVKPSQTLSLTCSVTGDSITSGYWNWIRKFPGNKLEYMGYISDSGITYYNPSLKSRISITRDTSKNQYYLQLNFVTAEDTATYYCARRTLATYYAMDYWGQGTSVTVSSGSTSGSGKPGSGEGSTKGDFVMTQTPLSLPVSLGDQASISCRASQSLVHSNGNTYLHWYLQKPGQSPKLLIYRVSNRFSGVPDRFSGSGSGTDFTLKISRVEAEDLGVYFCSQSTHVPPTFGGGTKLEIKRTPVSEKQLAEVVANTITPLMKAQSVPGMAVAVIYQGKPHYYTFGKADIAANKPVTPQTLFELGSISKTFTGVLGGDAIARGEISLDDAVTRYWPQLTGKQWQGIRMLDLATYTAGGLPLQVPDEVTDNASLLRFYQNWQPQWKPGTTRLYANASIGLFGALAVKPSGMPYEQAMTTRVLKPLKLDHTWINVPKAEEAHYAWGYRDGKAVRVSPGMLDAQAYGVKTNVQDMANWVMANMAPENVADASLKQGIALAQSRYWRIGSMYQGLGWEMLNWPVEANTVVETSFGNVALAPLPVAEVNPPAPPVKASWVHKTGSTGGFGSYVAFIPEKQIGIVMLANTSYPNPARVEAAYHILEALQ | – | – | – | binds | – |
| L49-sFv-bL mutant FP945 (F H82B S) (scFv) scFv: MEVQLQESGPSLVKPSQTLSLTCSVTGDSITSGYWNWIRKFPGNKLEYMGYISDSGITYYNPSLKSRISITRDTSKNQYYLQLNSVTAEDTATYNCARRTLATYYAMDYWGQGTSVTVSSGSTSGSGKPGSGEGSTKGDFVMTQTPLSLPVSLGDQASISCRASQSLVHSNGNTYLHWYLQKPGQSPKLLIYRVSNRFSGVPDRFSGSGSGTDFTLKISRVEAEDLGVYFCSQSTHVPPTFGGGTKLEIKRTPVSEKQLAEVVANTITPLMKAQSVPGMAVAVIYQGKPHYYTFGKADIAANKPVTPQTLFELGSISKTFTGVLGGDAIARGEISLDDAVTRYWPQLTGKQWQGIRMLDLATYTAGGLPLQVPDEVTDNASLLRFYQNWQPQWKPGTTRLYANASIGLFGALAVKPSGMPYEQAMTTRVLKPLKLDHTWINVPKAEEAHYAWGYRDGKAVRVSPGMLDAQAYGVKTNVQDMANWVMANMAPENVADASLKQGIALAQSRYWRIGSMYQGLGWEMLNWPVEANTVVETSFGNVALAPLPVAEVNPPAPPVKASWVHKTGSTGGFGSYVAFIPEKQIGIVMLANTSYPNPARVEAAYHILEALQ | – | – | – | binds | – |
| L49-sFv-bL double mutant FP960 (F H82B S, N H91 Y) (scFv) scFv: MEVQLQESGPSLVKPSQTLSLTCSVTGDSITSGYWNWIRKFPGNKLEYMGYISDSGITYYNPSLKSRISITRDTSKNQYYLQLNSVTAEDTATYYCARRTLATYYAMDYWGQGTSVTVSSGSTSGSGKPGSGEGSTKGDFVMTQTPLSLPVSLGDQASISCRASQSLVHSNGNTYLHWYLQKPGQSPKLLIYRVSNRFSGVPDRFSGSGSGTDFTLKISRVEAEDLGVYFCSQSTHVPPTFGGGTKLEIKRTPVSEKQLAEVVANTITPLMKAQSVPGMAVAVIYQGKPHYYTFGKADIAANKPVTPQTLFELGSISKTFTGVLGGDAIARGEISLDDAVTRYWPQLTGKQWQGIRMLDLATYTAGGLPLQVPDEVTDNASLLRFYQNWQPQWKPGTTRLYANASIGLFGALAVKPSGMPYEQAMTTRVLKPLKLDHTWINVPKAEEAHYAWGYRDGKAVRVSPGMLDAQAYGVKTNVQDMANWVMANMAPENVADASLKQGIALAQSRYWRIGSMYQGLGWEMLNWPVEANTVVETSFGNVALAPLPVAEVNPPAPPVKASWVHKTGSTGGFGSYVAFIPEKQIGIVMLANTSYPNPARVEAAYHILEALQ | 1.75 | 0.000638 | 364000 | – | 100 |
| L49-sFv-bL double mutant FP965 (K H39 Q, N H91 Y) (scFv) scFv: MEVQLQESGPSLVKPSQTLSLTCSVTGDSITSGYWNWIRQFPGNKLEYMGYISDSGITYYNPSLKSRISITRDTSKNQYYLQLNFVTAEDTATYYCARRTLATYYAMDYWGQGTSVTVSSGSTSGSGKPGSGEGSTKGDFVMTQTPLSLPVSLGDQASISCRASQSLVHSNGNTYLHWYLQKPGQSPKLLIYRVSNRFSGVPDRFSGSGSGTDFTLKISRVEAEDLGVYFCSQSTHVPPTFGGGTKLEIKRTPVSEKQLAEVVANTITPLMKAQSVPGMAVAVIYQGKPHYYTFGKADIAANKPVTPQTLFELGSISKTFTGVLGGDAIARGEISLDDAVTRYWPQLTGKQWQGIRMLDLATYTAGGLPLQVPDEVTDNASLLRFYQNWQPQWKPGTTRLYANASIGLFGALAVKPSGMPYEQAMTTRVLKPLKLDHTWINVPKAEEAHYAWGYRDGKAVRVSPGMLDAQAYGVKTNVQDMANWVMANMAPENVADASLKQGIALAQSRYWRIGSMYQGLGWEMLNWPVEANTVVETSFGNVALAPLPVAEVNPPAPPVKASWVHKTGSTGGFGSYVAFIPEKQIGIVMLANTSYPNPARVEAAYHILEALQ | 1.91 | 0.000765 | 400000 | – | 100 |

— patent US20060160174A1 (published 2006)
